Laboratory results reported in patent US20210087288A1.

Tests used:
[1] = biological target: Human TfR extracellular domain (ecd) containing an N-terminal His tag (human) (UniProt P02786); test: SPR, bispecific antibody
[2] = biological target: Cyno TfR extracellular domain (analogous ecd construct) (cynomolgus monkey); test: SPR, bispecific antibody
Cyno TfR extracellular domain (analogous ecd construct) (cynomolgus monkey), sequence (Q5RDH6 other isoform, or with tags, fused parts or gaps): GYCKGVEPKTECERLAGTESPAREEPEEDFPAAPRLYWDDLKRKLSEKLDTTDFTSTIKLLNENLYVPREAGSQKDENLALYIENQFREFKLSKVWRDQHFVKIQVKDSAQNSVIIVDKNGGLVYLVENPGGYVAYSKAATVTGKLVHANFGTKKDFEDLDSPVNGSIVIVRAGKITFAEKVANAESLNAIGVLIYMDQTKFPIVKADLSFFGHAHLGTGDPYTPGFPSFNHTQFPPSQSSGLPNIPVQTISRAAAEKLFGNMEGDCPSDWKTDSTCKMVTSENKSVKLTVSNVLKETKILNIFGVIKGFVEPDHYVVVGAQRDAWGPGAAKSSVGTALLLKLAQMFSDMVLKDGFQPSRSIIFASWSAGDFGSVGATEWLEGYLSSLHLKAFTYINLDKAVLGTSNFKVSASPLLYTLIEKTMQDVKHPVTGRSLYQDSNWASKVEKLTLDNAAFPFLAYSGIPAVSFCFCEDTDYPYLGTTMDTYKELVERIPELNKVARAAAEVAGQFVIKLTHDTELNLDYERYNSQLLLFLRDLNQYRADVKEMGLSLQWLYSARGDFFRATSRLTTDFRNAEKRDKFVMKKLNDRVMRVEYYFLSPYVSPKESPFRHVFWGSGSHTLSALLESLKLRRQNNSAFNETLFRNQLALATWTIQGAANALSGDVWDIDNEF

Human TfR extracellular domain (ecd) containing an N-terminal His tag (human), sequence (P02786 89-760 G142S): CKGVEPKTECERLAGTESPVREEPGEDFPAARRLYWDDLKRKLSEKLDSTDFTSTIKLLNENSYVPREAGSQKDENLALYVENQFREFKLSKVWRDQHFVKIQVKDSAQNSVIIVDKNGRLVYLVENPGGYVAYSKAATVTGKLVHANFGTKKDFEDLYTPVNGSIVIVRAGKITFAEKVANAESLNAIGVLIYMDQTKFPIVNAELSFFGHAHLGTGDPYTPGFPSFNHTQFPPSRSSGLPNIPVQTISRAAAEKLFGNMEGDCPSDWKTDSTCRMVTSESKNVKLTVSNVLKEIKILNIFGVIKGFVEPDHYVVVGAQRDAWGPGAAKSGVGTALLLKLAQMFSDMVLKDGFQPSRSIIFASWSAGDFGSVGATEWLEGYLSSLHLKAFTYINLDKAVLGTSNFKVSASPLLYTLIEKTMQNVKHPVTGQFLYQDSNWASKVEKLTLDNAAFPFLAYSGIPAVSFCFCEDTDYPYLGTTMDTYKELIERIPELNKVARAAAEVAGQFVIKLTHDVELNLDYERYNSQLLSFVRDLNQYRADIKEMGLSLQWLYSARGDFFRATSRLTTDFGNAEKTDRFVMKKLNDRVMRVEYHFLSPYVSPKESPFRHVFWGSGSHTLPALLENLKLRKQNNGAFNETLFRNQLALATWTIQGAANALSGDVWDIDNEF

B1: Anti-TfR^53A/BACE1 bispecific antibody, human IgG1 N297G (bispecific antibody, part only; not given: anti-BACE1 half-antibody, V domains shown, not shown: another chain or arm of the molecule; a dimerising Fc or GST; small tags and cut ends)
VH: EVQLVQSGAEVKKPGASVKVSCKASGYTFTSYWMHWVRQAPGQRLEWIGEINPANGRTNYIEKFKSRATLTVDKSASTAYMELSSLRSEDTAVYYCARGTRAYHYWGQGTMVTVSS
VL: DIQMTQSPSSLSASVGDRVTITCRASDNLYSNLAWYQQKPGKSPKLLVYDATNLADGVPSRFSGSGSGTDYTLTISSLQPEDFATYYCQHFWGTPLTFGQGTKVEIK
[1]
  Kd: 24 nM
[2]
  Kd: 143 nM
